In the nanobody polyreactivity screen of Harvey et al. (2022):

Experiment: yeast display, Sf9 membrane polyspecificity reagent, FACS + sequencing; frameworks hold sequencing errors
Summary of the method: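 Sorting gates, low and high (top ~1%), were placed on anti-HA fluorescence to track expression and on streptavidin fluorescence to track reagent binding. A clone's polyreactivity label is taken from the gate it came out of. The reagent was 10% biotinylated, detergent-solubilized Sf9 membrane, applied for 1 hour at 4 °C to galactose-induced yeast display cells.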

Sequence | polyreactivity (PSR sort gate)
QVQLVESGGGLVQAGGSLRLSCAASGFIFYNYAMGWYRQAPGKERELVAAITGGGSTNYADSVKGRFTISRDNAKNTVYLQMNSLKPEDTAVYYCAAEEGPPWSRYDYWGQGTQVTVSS | low polyreactivity
QVQLVESGGGLAQAGGSLRLSCAASGRTFRTYTMGWYRQAPGKERELVAAISWSGSSTYYADSVKGRFTISRDNAKNTVYLQMNSLKPEDTAVYYCAARGLYDYGYWGQGTQVTVSS | high polyreactivity
QVKLGESGGGLVQAGGSLRLSCAASGSILEFNAKGWYRQAPGKERELVAGITRDGGTTYADSVKGRFTISRDNAKNNVYFQMNSLKPEDNAVYYCAGTYYFSRWDLYGYWGHGTQVTVSS | low polyreactivity
QVQLVESGRGLVQAGGSLRLSCAASGSTFVRNAMGWYRQAPGKERELDAAITSSGGSTYYADSVKGRFTISRDYAKNTVYVQMNRLKPEDTAVYYCGKRRYYRYDYWGLGTQVTVSS | low polyreactivity
QVQLVESGGGLVQAGGSLRLSCAASGRTFSLYDMGWYRQAPGKERELVAAISYSGTRTYYADSVKGRFTISRDNAKNTVYLQMNCLKPEDTAVYYCARVYTVGTGRSWRLDYWGQGTQVTVSS | high polyreactivity
QVQLVESGGGLVQAGGSLRLSCADSGRIIPSYDMGWYRQAPGKERELVAVIRSSVDGTYYADSVKGRFTISRDNAKNTVYLQMNSLKPEDTAVYDCAADSLTPKSASDYWGQGTQVTVSS | low polyreactivity
QVQLVESGGGLVQAGGSLRLSCAASGFIFTVYALGWYRQAPVKERELVATITGTGDTNYADSVKGRFTISRDNAKNTVYLQMNSLKPEDTAVYYCAVSPRVPFRKPVLTPYNMYYWGQGTQVTVSS | high polyreactivity
QVQLVESGGGLVQAGGSLRLSCAASGRIFARYAMGWYRQAPGKERELVAAITSRGGSTYYADSVKGRFTISRDNAKNTVYLQMNSLKPEDTAVYYCNADYYRRPYYYWGQGTQVTVSS | high polyreactivity
QVQLVESGGGLVQAGGSLRLSCAASGSTFPYYAMGWYRQAPGKERELVAAITSSTGRTYYADSVKGRFTISRDNAKNTVYFQMNSLKPEDTAVYYCNAEVYSDPYNDHDYWGQGTQVTVSS | low polyreactivity
QVQLVESGGGLVQAGGSLRLSCAASGRIFYANAMGWYRQAPGKERELVAGISSGGITNYADSVKGRFTISRDNAKITVYLQMNSLKPEDTAVYYCAVESWNRWRNRNDYWGQGTQVTVSS | low polyreactivity
QVQLVESGGGLVQAGGSLRLSCAASGSTFGLYVMGWYRQAPGKERELVAAINRICSRTYYADSVKGRFTISRDNAKNTVYLQMNSLKPEDTAVYYCAADYDYTSPGDDYWGQGTQVTVSS | high polyreactivity
QVQLVESGGGLVQAGGSLRLSCAASGSTFTGYAMGWYRQAPGKERELVAAISRSGGSTYYADSVKGRFTISRDNAKNTVYLQMNSLKPEDTAVYYCYVDPSARRYVYWGQGTQVTVSS | high polyreactivity
QDQLVESGGGLVQAGGSLRLSCAASGLIFVRYAMGWYRQAPGKERELVATITWSGGTTYADSVKGRFTISRDNAKKTVYLQMNSLNPEDTAVYYCAVASGPELDYWGQGTQVTVSS | low polyreactivity
QVQLVESGGGLVQAGGSLRLSCAASGSIFGSYAMGWYRQAPGKERDLVAAISGSGGRTYYADSVKGRFTISRDNAKNTVYLQMNSLKPEDTAVYYCAAAYPRVTYKYGYYWGQGTQVTVSS | high polyreactivity
HVQLVESGGGLVQAGGSLRLSCAASGIIFGAYALGWYRQAPGKERELVAAITYSSGSTYYADSVKGRFTISRDNAKNTVYLQMNSLKPEDTAVYYCAKTNFSQSSRYNYDYWGQGTQVTVSS | low polyreactivity
QVQLVESGGGLVQAGGSLRLSCAASGRTLDWNAMGWYRQAPGKERELVAAISWSGDSTYYADSVKGRFTISRDNAKNTVYLQMNSLKPEDTAVYYCDARYGRSWGRGYGYWGQGTQVTVSS | low polyreactivity

Sequence | polyreactivity (PSR sort gate)
QVQLVESGGGLVQAGGSLRLSCAASGITFLSNAMGWYRQAPGKERELVAAISRGGGTTYYADSVKGRFTISRDNAKNTVYLQMNSLKPEDTAVYYCATESTHTRRSWYEYWGQGTQVTVSS | high polyreactivity
QVQLVESAGGIVQAGGSLRLSCDASGSIFYYYAMGWYRQAPGKERELVADISYRGSRTFYADSVKGLFTISRDIAKNTVYLQMNSLKPEDTEVYYCAAAYSRYTSRFYYWGQGTQVTVSS | high polyreactivity
QVQLVESGGGLVQAGGSLRLSCAASGFTFYRYAMGWYRQAPGKERELVAAITSGGDTYYADSVKGRFTISRDNAKNTVYLQMNSLKPEDTAVYYCAAAPRYGYGLASDSIFDYWGQGTQVTVSS | high polyreactivity
QVQLVESGGGLVQAGGSLRLSCAASGRTFQYYAMGWYRQAPGKERELVAAITWSGTSTYYADSVKGRFTISRDNAKNTVYLQMNSLKPEDTAVYYCNKYSPYITYDYDYWGQGTQVTVSS | high polyreactivity
QVQLVESGGGLVQAGGSLRLSCAASGSIYYNAMGWYRQAPGKERELVASISTGDSTDYADSVKGRFTISRDNAKNTVYLQMNSLKPEDTAVYYCAADTRLGYWDDYWGQGTQVTVSS | low polyreactivity
QVQLVESGGGLVQAGGSLRLSCAASGIIFNYYAMGWYRQAPGKERELVAAIRISDTTYYADSVKGRFTISRDNAKNTVYLQMNSLKPEDTAVYYCNTLYYYYYGEVYVRDYDYWGQGTQVTVSS | low polyreactivity
QHQLVESGAALVQAGGSLLVICAASVFTFPFYTMGWYRQAPGKEMELVAAISTSGAGTYYAESVKGRFTISRDNAKNTVYLQMNSLKTEDTAVYYCAAYKRGRREMDYWGQGTQVTVSS | high polyreactivity
QVQLVESCGGLVQAGGSLRLSCAASGFIFRIYAMGWYRQAPGKERELVAAITWSGGRTFYADSVKGRFTISRDNAKNTVYLQMNSLKPEDTAVFYCAARGRSSGFGYWGQGTQVTVSS | high polyreactivity
QVQLVESGGGLVQAGGSLRLSCAASGSIFSQYVMGWYRQAPGKERELVAAISWSGGHTYYADSVKGRFTISRDNAKNTVYLQMNSLKPEDTAVYYCRAFFRRDYWGQGTQVTVSS | high polyreactivity
QVQLVESGGGLVQAGGSLRLSCAASGRTYGYAMGSYRPAPGKERELVARITWRGGSTSYADSVKGRFTISRDNAKNTVYLQMNILKPEDTAVYYCAAGFYFPVYTYVRIRYYYWGQGTQVTVSS | high polyreactivity
QVQLEESGGGLLKEGGSLRLSCAASGFTFDGYAMGWYRQAPGKERELVAVITSGGSTKYADSVKGRFTISRDNAKNTVYLQMNSLKPEVTAVYNCNVVGGRYLYSAYDYWGHGTQVTVSS | low polyreactivity
QVQLVESGGGLVQAGGSLRLSCAASGSIFNYYTMGWYRQAPGKERELVAAISWSGGSTYYADSVKGRFTISRDNAKNTVYLQMNSLKPEDTAVYYCAAVVRYSQAGYYYWGQGTQVTVSS | high polyreactivity
QVQLVESGGGLVQAGGSLRLSCAASGSIFYYYARGWYRQAPGKERELVAAITSGGRTKYADSVKGRFTISRDNAKNTVNLQMNSLKPEDTAVYYCNARNYGKYRTNDYWGQGTQVTVSS | high polyreactivity
QVQLVESGGGLVQAGGSLRLSSAASGSIYGYTMGWYRQAPGKERELVAAINRRADRTYYADSVKGRFTISRDNAKNTVYLEMNILKPEDTAVYYCNKGGWYTLGYWGQGTQVTVSS | high polyreactivity
QVQLVESGGGLVQAGGSLRLSCAASGSTFNWYAMGWYRQAPGKERELVASIRISGGSTYYADSVKGRFTISRDNAKNTVYLQMNSLKPEDTAVYYCNAKLFIRWFTYDYLGQGTQVTVSS | low polyreactivity
QVQLVESVVGLVQAGGSLRLSCAASGRTFYRNGMGWYRQAPGKERELVAAISSRGGSTYYADSVKGRFTISRDNAKNTVYLQMNSLKPEDTAVYYCAAPRASGYYWGQGTQVTVSS | high polyreactivity
